According to PMC11327267 (Nature Communications, 2024):

T1: human FIGNL1ΔN (fidgetin-like 1 in which the N-terminal 284 aa were deleted) (human, UniProt Q6PIW4 285-674)
T1 sequence: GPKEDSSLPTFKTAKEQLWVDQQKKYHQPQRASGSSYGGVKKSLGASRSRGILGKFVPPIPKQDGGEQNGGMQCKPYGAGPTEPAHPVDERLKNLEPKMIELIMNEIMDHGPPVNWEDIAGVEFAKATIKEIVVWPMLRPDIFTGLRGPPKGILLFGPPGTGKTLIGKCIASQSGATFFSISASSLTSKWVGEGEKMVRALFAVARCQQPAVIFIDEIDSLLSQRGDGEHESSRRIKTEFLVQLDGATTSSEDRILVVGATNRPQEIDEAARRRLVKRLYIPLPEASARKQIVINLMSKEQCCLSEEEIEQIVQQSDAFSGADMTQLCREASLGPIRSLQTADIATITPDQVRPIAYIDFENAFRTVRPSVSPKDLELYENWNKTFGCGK


Molecular target: T1, human FIGNL1ΔN (fidgetin-like 1 in …)
Test: native gel or EMSA

| binding result | Binder |
| --- | --- |
| binds | human RAD51 (natural protein) MAMQMQLEANADTSVEEESFGPQPISRLEQCGINANDVKKLEEAGFHTVEAVAYAPKKELINIKGISEAKADKILAEAAKLVPMGFTTATEFHQRRSEIIQITTGSKELDKLLQGGIETGSITEMFGEFRTGKTQICHTLAVTCQLPIDRGGGEGKAMYIDTEGTFRPERLLAVAERYGLSGSDVLDNVAYARAFNTDHQTQLLYQASAMMVESRYALLIVDSATALYRTDYSGRGELSARQMHLARFLRMLLRLADEFGVAVVITNQVVAQVDGAAMFAADPKKPIGGNIIAHASTTRLYLRKGRGETRICKIYDSPCLPEAEAMFAINADGVGDAKD |
| binds | human DMC1 (natural protein) MKEDQVVAEEPGFQDEEESLFQDIDLLQKHGINVADIKKLKSVGICTIKGIQMTTRRALCNVKGLSEAKVDKIKEAANKLIEPGFLTAFEYSEKRKMVFHITTGSQEFDKLLGGGIESMAITEAFGEFRTGKTQLSHTLCVTAQLPGAGGYPGGKIIFIDTENTFRPDRLRDIADRFNVDHDAVLDNVLYARAYTSEHQMELLDYVAAKFHEEAGIFKLLIIDSIMALFRVDFSGRGELAERQQKLAQMLSRLQKISEEYNVAVFVTNQMTADPGATMTFQADPKKPIGGHILAHASTTRISLRKGRGELRIAKIYDSPEMPENEATFAITAGGIGDAKE |
